Patent publication US20140259226
Where a chain is given by its changes, count along the chain named.

Experiments:
6X His-PYR1 F159V = target: T1, 6X His-PYR1 F159V
T1 chain: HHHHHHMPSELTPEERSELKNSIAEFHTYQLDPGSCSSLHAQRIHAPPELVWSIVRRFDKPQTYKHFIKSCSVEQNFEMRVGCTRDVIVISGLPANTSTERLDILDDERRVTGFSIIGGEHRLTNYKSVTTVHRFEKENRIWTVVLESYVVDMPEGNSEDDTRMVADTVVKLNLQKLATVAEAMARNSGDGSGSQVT

[1] = target: T2, PYR1^CA4B (V83F, M158I, F159V, K170W), 6xHis fusion
T2 chain: T1 chain with V89F, M164I, K176W

6X His-PYR1 H60P = target: T3, 6X His-PYR1 H60P
T3 chain: T1 chain with H66P, V165F

[2] = target: T4, PYL2^CA4C (H65P, A93W, M164I, F165V), 6xHis fusion
T4 chain: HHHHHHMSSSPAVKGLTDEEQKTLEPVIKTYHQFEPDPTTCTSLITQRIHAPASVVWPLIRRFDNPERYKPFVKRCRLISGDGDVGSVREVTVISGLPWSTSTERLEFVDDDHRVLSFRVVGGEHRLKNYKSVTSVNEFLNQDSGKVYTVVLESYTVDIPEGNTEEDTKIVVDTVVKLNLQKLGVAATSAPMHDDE

6x-His-PYL10, wild type = target: T5, 6x-His-PYL10, wild type
T5 chain: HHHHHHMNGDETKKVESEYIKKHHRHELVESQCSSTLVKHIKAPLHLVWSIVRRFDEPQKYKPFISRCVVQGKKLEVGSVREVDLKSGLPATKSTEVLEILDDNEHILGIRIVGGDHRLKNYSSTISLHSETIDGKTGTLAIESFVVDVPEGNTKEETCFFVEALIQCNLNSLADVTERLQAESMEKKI

6X His-PYR1 M158I = target: T6, 6X His-PYR1 M158I
T6 chain: T1 chain with M164I, V165F

6X His-PYR1 I84Q = target: T7, 6X His-PYR1 I84Q
T7 chain: T1 chain with I90Q, V165F

[3] = target: T8, PYL9^CA4C (A91W, Y160I, F161V), 6xHis fusion
T8 chain: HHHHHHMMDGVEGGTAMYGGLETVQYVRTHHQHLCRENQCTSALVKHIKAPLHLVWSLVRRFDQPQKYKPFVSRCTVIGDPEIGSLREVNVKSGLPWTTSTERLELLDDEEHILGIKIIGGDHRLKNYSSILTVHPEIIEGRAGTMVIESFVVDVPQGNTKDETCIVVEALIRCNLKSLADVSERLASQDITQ

6X His-PYR1 V83F = target: T9, 6X His-PYR1 V83F
T9 chain: T1 chain with V89F, V165F

[4] = target: T10, PYR1^CA4C (H60P, A89W, M158I, F159V), 6xHis fusion
T10 chain: T1 chain with H66P, A95W, M164I

6X His-PYR1 T162F = target: T11, 6X His-PYR1 T162F
T11 chain: T1 chain with V165F, T168F

[5] = target: T12, PYR1^CA3 (H60P, V83F, F159V), 6xHis fusion
T12 chain: T1 chain with H66P, V89F

6X His-PYR1 K170W = target: T13, 6X His-PYR1 K170W
T13 chain: T1 chain with V165F, K176W

[6] = target: T14, PYR1^CA4 (H60P, V83F, F159V, M158I), 6xHis fusion
T14 chain: T1 chain with H66P, V89F, M164I

6X His-PYR1 A89W = target: T15, 6X His-PYR1 A89W
T15 chain: T1 chain with A95W, V165F

6x-His-PYL6, wild type = target: T16, 6x-His-PYL6, wild type
T16 chain: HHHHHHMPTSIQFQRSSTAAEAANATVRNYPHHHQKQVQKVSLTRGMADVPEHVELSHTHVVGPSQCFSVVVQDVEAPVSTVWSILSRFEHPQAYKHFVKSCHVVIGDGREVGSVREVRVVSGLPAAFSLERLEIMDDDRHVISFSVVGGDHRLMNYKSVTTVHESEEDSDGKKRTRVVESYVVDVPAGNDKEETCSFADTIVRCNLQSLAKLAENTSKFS

B1: GST-HAB1 (protein)
chain: SPVEITQLKNVTDAADLLSDSENQSFCNGGTECTMEDVSELEEVGEQDLLKTLSDTRSGSSNVFDEDDVLSVVEDNSAVISEGLLVVDAGSELSLSNTAMEIDNGRVLATAIIVGESSIEQVPTAEVLIAGVNQDTNTSEVVIRLPDENSNHLVKGRSVYELDCIPLWGTVSIQGNRSEMEDAFAVSPHFLKLPIKMLMGDHEGMSPSLTHLTGHFFGVYDGHGGHKVADYCRDRLHFALAEEIERIKDELCKRNTGEGRQVQWDKVFTSCFLTVDGEIEGKIGRAVVGSSDKVLEAVASETVGSTAVVALVCSSHIVVSNCGDSRAVLFRGKEAMPLSVDHKPDREDEYARIENAGGKVIQWQGARVFGVLAMSRSIGDRYLKPYVIPEPEVTFMPRSREDECLILASDGLWDVMNNQEVCEIARRRILMWHKKNGAPPLAERGKGIDPACQAAADYLSMLALQKGSKDNISIIVIDLKAQRKFKTRT
HAB1 phosphatase (PP2C) activity, % of control, pNPP hydrolysis, in the absence of ABA (6X His-PYR1 F159V): each of the activating mutants increased basal receptor activity in comparison to wild-type PYR1
PP2C activity, % of control, pNPP hydrolysis, in the absence of ABA [1]: both the PYR1^CA4B and PYR1^CAc mutants dramatically increased basal PYR1 activity relative to wild-type PYR1
HAB1 phosphatase (PP2C) activity, % of control, pNPP hydrolysis, in the absence of ABA (6X His-PYR1 H60P): each of the activating mutants increased basal receptor activity in comparison to wild-type PYR1
PP2C activity, % of control, pNPP hydrolysis, in the absence of ABA [2]: the mutant proteins were highly activated in the absence of ABA in comparison to wild-type PYL2 or PYL9
PP2C activity, % of control, pNPP hydrolysis, with 0 or 10 µM ABA (6x-His-PYL10, wild type): PYL6 and PYL10, which have high basal activities ..., are not full CA receptors
HAB1 phosphatase (PP2C) activity, % of control, pNPP hydrolysis, in the absence of ABA (6X His-PYR1 M158I): each of the activating mutants increased basal receptor activity in comparison to wild-type PYR1
HAB1 phosphatase (PP2C) activity, % of control, pNPP hydrolysis, in the absence of ABA (6X His-PYR1 I84Q): each of the activating mutants increased basal receptor activity in comparison to wild-type PYR1
PP2C activity, % of control, pNPP hydrolysis, in the absence of ABA [3]: the mutant proteins were highly activated in the absence of ABA in comparison to wild-type PYL2 or PYL9
HAB1 phosphatase (PP2C) activity, % of control, pNPP hydrolysis, in the absence of ABA (6X His-PYR1 V83F): each of the activating mutants increased basal receptor activity in comparison to wild-type PYR1
PP2C activity, % of control, pNPP hydrolysis, in the absence of ABA [4]: both the PYR1^CA4B and PYR1^CAc mutants dramatically increased basal PYR1 activity relative to wild-type PYR1
HAB1 phosphatase (PP2C) activity, % of control, pNPP hydrolysis, in the absence of ABA (6X His-PYR1 T162F): each of the activating mutants increased basal receptor activity in comparison to wild-type PYR1
PP2C activity, % of control, pNPP hydrolysis, in the absence of ABA [5]: both the triple and quadruple mutants dramatically increased basal PYR1 activity relative to wild-type PYR1
HAB1 phosphatase (PP2C) activity, % of control, pNPP hydrolysis, in the absence of ABA (6X His-PYR1 K170W): each of the activating mutants increased basal receptor activity in comparison to wild-type PYR1
PP2C activity, % of control, pNPP hydrolysis, in the absence of ABA [6]: both the triple and quadruple mutants dramatically increased basal PYR1 activity relative to wild-type PYR1
HAB1 phosphatase (PP2C) activity, % of control, pNPP hydrolysis, in the absence of ABA (6X His-PYR1 A89W): each of the activating mutants increased basal receptor activity in comparison to wild-type PYR1
PP2C activity, % of control, pNPP hydrolysis, with 0 or 10 µM ABA (6x-His-PYL6, wild type): PYL6 and PYL10, which have high basal activities ..., are not full CA receptors
